According to the supplement of paper PMC10724198:
± gives the standard deviation of the averaged measurements.

Assays:
Saccharomyces cerevisiae [1] = test: protein stability index of tFT-peptide fusion (C-terminal peptide) (PSI (0-1 scale)); higher = more stable (slower turnover)
Method: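 MPS profiling in S. cerevisiae of the tFT-X12 degron library: putative degron peptides plus stable controls, 12 aa, fused to the C-terminus of a sfGFP-mCherry timer. Cells are FACS-sorted into 8 mCherry/sfGFP bins and deep-sequenced. PSI runs from 0 (unstable) to 1 (stable). Backgrounds are wild type, das1Δ and doa10Δ at 30 °C, and wild type, das1Δ, cdc34-1 and cdc53-1 at 37 °C; 2-3 technical replicates each.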

Saccharomyces cerevisiae [2] = test: as above; conditions: genetic background: wild type; temperature: 30 C
[3] = genetic background: cdc34-1, temperature: 37 C
[4] = genetic background: cdc53-1, temperature: 37 C
[5] = genetic background: das1 deletion, temperature: 30 C
[6] = genetic background: das1 deletion, temperature: 37 C
[7] = genetic background: doa10 deletion, temperature: 30 C
[8] = genetic background: wild type, temperature: 30 C
[9] = genetic background: wild type, temperature: 37 C
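Note: PSI is a weighted mean of sequencing reads over stability bins, variants kept only with over 10 reads, mCherry proximal and sfGFP distal, peptide attached via GGGS linker.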

VGVVVVGDVLVW
protein stability index (Saccharomyces cerevisiae [1]; [3]): 0.286 ± 0.071 | protein stability index (Saccharomyces cerevisiae [1]; [4]): 0.375 ± 0.02 | protein stability index (Saccharomyces cerevisiae [1]; [5]): 0.279 ± 0.03 | protein stability index (Saccharomyces cerevisiae [1]; [6]): 0.423 ± 0.0065 | protein stability index (Saccharomyces cerevisiae [1]; [7]): 0.2321 ± 0.0019 | protein stability index (Saccharomyces cerevisiae [1]; [8]): 0.26 ± 0.025 | protein stability index (Saccharomyces cerevisiae [1]; [9]): 0.402 ± 0.0091 | protein stability index (Saccharomyces cerevisiae [2]): 0.424 ± 0.046

PVSEPCAWRIIA
protein stability index (Saccharomyces cerevisiae [1]; [3]): 0.374 ± 0.015 | protein stability index (Saccharomyces cerevisiae [1]; [4]): 0.689 ± 0.026 | protein stability index (Saccharomyces cerevisiae [1]; [5]): 0.6769 ± 0.0044 | protein stability index (Saccharomyces cerevisiae [1]; [6]): 0.699 ± 0.018 | protein stability index (Saccharomyces cerevisiae [1]; [7]): 0.0726 ± 0.0028 | protein stability index (Saccharomyces cerevisiae [1]; [8]): 0.0645 ± 0.018 | protein stability index (Saccharomyces cerevisiae [1]; [9]): 0.0736 ± 0.0023 | protein stability index (Saccharomyces cerevisiae [2]): 0.1098 ± 0.00053

LPHPLPFCFSLY
protein stability index (Saccharomyces cerevisiae [1]; [3]): 0.711 ± 0.024 | protein stability index (Saccharomyces cerevisiae [1]; [4]): 0.7672 ± 0.0058 | protein stability index (Saccharomyces cerevisiae [1]; [5]): 0.672 ± 0.0085 | protein stability index (Saccharomyces cerevisiae [1]; [6]): 0.7781 ± 0.0021 | protein stability index (Saccharomyces cerevisiae [1]; [7]): 0.4271 ± 0.0037 | protein stability index (Saccharomyces cerevisiae [1]; [8]): 0.451 ± 0.025 | protein stability index (Saccharomyces cerevisiae [1]; [9]): 0.6683 ± 0.0063 | protein stability index (Saccharomyces cerevisiae [2]): 0.515 ± 0.062

SFFVCAGFWVLC
protein stability index (Saccharomyces cerevisiae [1]; [3]): 0.419 ± 0.0091 | protein stability index (Saccharomyces cerevisiae [1]; [4]): 0.511 ± 0.081 | protein stability index (Saccharomyces cerevisiae [1]; [5]): 0.347 ± 0.025 | protein stability index (Saccharomyces cerevisiae [1]; [6]): 0.539 ± 0.049 | protein stability index (Saccharomyces cerevisiae [1]; [7]): 0.248 ± 0.011 | protein stability index (Saccharomyces cerevisiae [1]; [8]): 0.289 ± 0.016 | protein stability index (Saccharomyces cerevisiae [1]; [9]): 0.456 ± 0.0091 | protein stability index (Saccharomyces cerevisiae [2]): 0.363 ± 0.024

PCPAPRPPSPSA
protein stability index (Saccharomyces cerevisiae [1]; [3]): 0.664 ± 0.078 | protein stability index (Saccharomyces cerevisiae [1]; [4]): 0.721 ± 0.05 | protein stability index (Saccharomyces cerevisiae [1]; [5]): 0.653 ± 0.0096 | protein stability index (Saccharomyces cerevisiae [1]; [6]): 0.715 ± 0.0076 | protein stability index (Saccharomyces cerevisiae [1]; [7]): 0.668 ± 0.031 | protein stability index (Saccharomyces cerevisiae [1]; [8]): 0.682 ± 0.023 | protein stability index (Saccharomyces cerevisiae [1]; [9]): 0.694 ± 0.014 | protein stability index (Saccharomyces cerevisiae [2]): 0.435 ± 0.03

FFSLMFVFLTVF
protein stability index (Saccharomyces cerevisiae [1]; [3]): 0.113 ± 0.018 | protein stability index (Saccharomyces cerevisiae [1]; [4]): 0.131 ± 0.043 | protein stability index (Saccharomyces cerevisiae [1]; [5]): 0.201 ± 0.03 | protein stability index (Saccharomyces cerevisiae [1]; [6]): 0.276 ± 0.015 | protein stability index (Saccharomyces cerevisiae [1]; [7]): 0.192 ± 0.0063 | protein stability index (Saccharomyces cerevisiae [1]; [8]): 0.164 ± 0.02 | protein stability index (Saccharomyces cerevisiae [1]; [9]): 0.23 ± 0.012 | protein stability index (Saccharomyces cerevisiae [2]): 0.278 ± 0.033

AFWLFSGIARLA
protein stability index (Saccharomyces cerevisiae [1]; [3]): 0.568 ± 0.011 | protein stability index (Saccharomyces cerevisiae [1]; [4]): 0.66 ± 0.023 | protein stability index (Saccharomyces cerevisiae [1]; [5]): 0.472 ± 0.014 | protein stability index (Saccharomyces cerevisiae [1]; [6]): 0.642 ± 0.024 | protein stability index (Saccharomyces cerevisiae [1]; [7]): 0.221 ± 0.014 | protein stability index (Saccharomyces cerevisiae [1]; [8]): 0.277 ± 0.011 | protein stability index (Saccharomyces cerevisiae [1]; [9]): 0.5014 ± 0.0035 | protein stability index (Saccharomyces cerevisiae [2]): 0.407 ± 0.041

VVVHFVLVCSTS
protein stability index (Saccharomyces cerevisiae [1]; [3]): 0.0899 ± 0.0074 | protein stability index (Saccharomyces cerevisiae [1]; [4]): 0.237 ± 0.057 | protein stability index (Saccharomyces cerevisiae [1]; [5]): 0.141 ± 0.026 | protein stability index (Saccharomyces cerevisiae [1]; [6]): 0.284 ± 0.0084 | protein stability index (Saccharomyces cerevisiae [1]; [7]): 0.116 ± 0.011 | protein stability index (Saccharomyces cerevisiae [1]; [8]): 0.13 ± 0.024 | protein stability index (Saccharomyces cerevisiae [1]; [9]): 0.271 ± 0.014 | protein stability index (Saccharomyces cerevisiae [2]): 0.289 ± 0.038

KKKNIYKVMKLE
protein stability index (Saccharomyces cerevisiae [1]; [3]): 0.65 ± 0.011 | protein stability index (Saccharomyces cerevisiae [1]; [4]): 0.706 ± 0.011 | protein stability index (Saccharomyces cerevisiae [1]; [5]): 0.646 ± 0.035 | protein stability index (Saccharomyces cerevisiae [1]; [6]): 0.72636 ± 0.00051 | protein stability index (Saccharomyces cerevisiae [1]; [7]): 0.146 ± 0.043 | protein stability index (Saccharomyces cerevisiae [1]; [8]): 0.19 ± 0.041 | protein stability index (Saccharomyces cerevisiae [1]; [9]): 0.307 ± 0.025 | protein stability index (Saccharomyces cerevisiae [2]): 0.403 ± 0.055

FSFLLYASLVTH
protein stability index (Saccharomyces cerevisiae [1]; [3]): 0.298 ± 0.016 | protein stability index (Saccharomyces cerevisiae [1]; [4]): 0.343 ± 0.032 | protein stability index (Saccharomyces cerevisiae [1]; [5]): 0.307 ± 0.021 | protein stability index (Saccharomyces cerevisiae [1]; [6]): 0.333 ± 0.021 | protein stability index (Saccharomyces cerevisiae [1]; [7]): 0.322 ± 0.0038 | protein stability index (Saccharomyces cerevisiae [1]; [8]): 0.297 ± 0.013 | protein stability index (Saccharomyces cerevisiae [1]; [9]): 0.3145 ± 0.00081 | protein stability index (Saccharomyces cerevisiae [2]): 0.314 ± 0.015

GDINRNTRYLEK
protein stability index (Saccharomyces cerevisiae [1]; [3]): 0.6705 ± 0.0048 | protein stability index (Saccharomyces cerevisiae [1]; [4]): 0.7508 ± 0.0049 | protein stability index (Saccharomyces cerevisiae [1]; [5]): 0.648 ± 0.029 | protein stability index (Saccharomyces cerevisiae [1]; [6]): 0.698 ± 0.0092 | protein stability index (Saccharomyces cerevisiae [1]; [7]): 0.649 ± 0.0063 | protein stability index (Saccharomyces cerevisiae [1]; [8]): 0.6339 ± 0.0032 | protein stability index (Saccharomyces cerevisiae [1]; [9]): 0.702 ± 0.024 | protein stability index (Saccharomyces cerevisiae [2]): 0.556 ± 0.18

LLVCLGYFLFLG
protein stability index (Saccharomyces cerevisiae [1]; [3]): 0.37 ± 0.025 | protein stability index (Saccharomyces cerevisiae [1]; [4]): 0.372 ± 0.031 | protein stability index (Saccharomyces cerevisiae [1]; [5]): 0.313 ± 0.024 | protein stability index (Saccharomyces cerevisiae [1]; [6]): 0.484 ± 0.055 | protein stability index (Saccharomyces cerevisiae [1]; [7]): 0.338 ± 0.0061 | protein stability index (Saccharomyces cerevisiae [1]; [8]): 0.288 ± 0.051 | protein stability index (Saccharomyces cerevisiae [1]; [9]): 0.453 ± 0.022 | protein stability index (Saccharomyces cerevisiae [2]): 0.403 ± 0.0091

GLVVWWLSGWLW
protein stability index (Saccharomyces cerevisiae [1]; [3]): 0.249 ± 0.034 | protein stability index (Saccharomyces cerevisiae [1]; [4]): 0.435 ± 0.05 | protein stability index (Saccharomyces cerevisiae [1]; [5]): 0.269 ± 0.023 | protein stability index (Saccharomyces cerevisiae [1]; [6]): 0.428 ± 0.0078 | protein stability index (Saccharomyces cerevisiae [1]; [7]): 0.221 ± 0.026 | protein stability index (Saccharomyces cerevisiae [1]; [8]): 0.276 ± 0.025 | protein stability index (Saccharomyces cerevisiae [1]; [9]): 0.425 ± 0.048 | protein stability index (Saccharomyces cerevisiae [2]): 0.373 ± 0.0071

LFFWVLTVMFVW
protein stability index (Saccharomyces cerevisiae [1]; [3]): 0.162 ± 0.025 | protein stability index (Saccharomyces cerevisiae [1]; [4]): 0.23 ± 0.0048 | protein stability index (Saccharomyces cerevisiae [1]; [5]): 0.224 ± 0.013 | protein stability index (Saccharomyces cerevisiae [1]; [6]): 0.3199 ± 0.00034 | protein stability index (Saccharomyces cerevisiae [1]; [7]): 0.222 ± 0.011 | protein stability index (Saccharomyces cerevisiae [1]; [8]): 0.195 ± 0.015 | protein stability index (Saccharomyces cerevisiae [1]; [9]): 0.283 ± 0.015 | protein stability index (Saccharomyces cerevisiae [2]): 0.302 ± 0.046

SVKRVVPCLVSC
protein stability index (Saccharomyces cerevisiae [1]; [3]): 0.442 ± 0.0081 | protein stability index (Saccharomyces cerevisiae [1]; [4]): 0.468 ± 0.0077 | protein stability index (Saccharomyces cerevisiae [1]; [5]): 0.332 ± 0.035 | protein stability index (Saccharomyces cerevisiae [1]; [6]): 0.525 ± 0.0063 | protein stability index (Saccharomyces cerevisiae [1]; [7]): 0.289 ± 0.0049 | protein stability index (Saccharomyces cerevisiae [1]; [8]): 0.337 ± 0.022 | protein stability index (Saccharomyces cerevisiae [1]; [9]): 0.486 ± 0.0031 | protein stability index (Saccharomyces cerevisiae [2]): 0.45 ± 0.063

CLCFFLICFILF
protein stability index (Saccharomyces cerevisiae [1]; [3]): 0.252 ± 0.0092 | protein stability index (Saccharomyces cerevisiae [1]; [4]): 0.255 ± 0.011 | protein stability index (Saccharomyces cerevisiae [1]; [5]): 0.235 ± 0.019 | protein stability index (Saccharomyces cerevisiae [1]; [6]): 0.391 ± 0.027 | protein stability index (Saccharomyces cerevisiae [1]; [7]): 0.248 ± 0.0026 | protein stability index (Saccharomyces cerevisiae [1]; [8]): 0.219 ± 0.032 | protein stability index (Saccharomyces cerevisiae [1]; [9]): 0.333 ± 0.016 | protein stability index (Saccharomyces cerevisiae [2]): 0.3151 ± 0.002

IGSFYVLSFICQ
protein stability index (Saccharomyces cerevisiae [1]; [3]): 0.593 ± 0.043 | protein stability index (Saccharomyces cerevisiae [1]; [4]): 0.61 ± 0.018 | protein stability index (Saccharomyces cerevisiae [1]; [5]): 0.454 ± 0.021 | protein stability index (Saccharomyces cerevisiae [1]; [6]): 0.626 ± 0.019 | protein stability index (Saccharomyces cerevisiae [1]; [7]): 0.438 ± 0.024 | protein stability index (Saccharomyces cerevisiae [1]; [8]): 0.458 ± 0.043 | protein stability index (Saccharomyces cerevisiae [1]; [9]): 0.592 ± 0.014 | protein stability index (Saccharomyces cerevisiae [2]): 0.475 ± 0.02

VAFILVVCKGIG
protein stability index (Saccharomyces cerevisiae [1]; [3]): 0.187 ± 0.029 | protein stability index (Saccharomyces cerevisiae [1]; [4]): 0.2776 ± 0.0022 | protein stability index (Saccharomyces cerevisiae [1]; [5]): 0.175 ± 0.016 | protein stability index (Saccharomyces cerevisiae [1]; [6]): 0.327 ± 0.0048 | protein stability index (Saccharomyces cerevisiae [1]; [7]): 0.122 ± 0.015 | protein stability index (Saccharomyces cerevisiae [1]; [8]): 0.152 ± 0.013 | protein stability index (Saccharomyces cerevisiae [1]; [9]): 0.287 ± 0.0077 | protein stability index (Saccharomyces cerevisiae [2]): 0.2024 ± 0.00042

VLARGFHCMYFC
protein stability index (Saccharomyces cerevisiae [1]; [3]): 0.68 ± 0.025 | protein stability index (Saccharomyces cerevisiae [1]; [4]): 0.736 ± 0.022 | protein stability index (Saccharomyces cerevisiae [1]; [5]): 0.621 ± 0.022 | protein stability index (Saccharomyces cerevisiae [1]; [6]): 0.75484 ± 0.00037 | protein stability index (Saccharomyces cerevisiae [1]; [7]): 0.444 ± 0.022 | protein stability index (Saccharomyces cerevisiae [1]; [8]): 0.447 ± 0.021 | protein stability index (Saccharomyces cerevisiae [1]; [9]): 0.623 ± 0.02 | protein stability index (Saccharomyces cerevisiae [2]): 0.484 ± 0.048

GLFLYCCLVSLL
protein stability index (Saccharomyces cerevisiae [1]; [3]): 0.192 ± 0.031 | protein stability index (Saccharomyces cerevisiae [1]; [4]): 0.321 ± 0.0044 | protein stability index (Saccharomyces cerevisiae [1]; [5]): 0.25 ± 0.025 | protein stability index (Saccharomyces cerevisiae [1]; [6]): 0.413 ± 0.018 | protein stability index (Saccharomyces cerevisiae [1]; [7]): 0.191 ± 0.00083 | protein stability index (Saccharomyces cerevisiae [1]; [8]): 0.193 ± 0.019 | protein stability index (Saccharomyces cerevisiae [1]; [9]): 0.33 ± 0.0091 | protein stability index (Saccharomyces cerevisiae [2]): 0.283 ± 0.011
